B1: MLL5 (parent)
chain: TYLCERCQPRNLDKERAVLLQRRK

Variants of: B1
Assay: protein stability index of a GFP-peptide fusion (GPS, HEK-293T) (PSI 1-6); higher = more stable
Conditions: c terminus: a fixed tail appended
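Also: lentivirally expressed fusions sorted by FACS into six bins by GFP to DsRed ratio, PSI derived from sequencing read proportions per bin multiplied by bin number.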

Variant	protein stability index
TNLCERCQPRNLDKERAVLLQRRK	2.43
TDLCERCQPRNLDKERAVLLQRRK	2.78
TWLCERCQPRNLDKERAVLLQRRK	2.76
TILCERCQPRNLDKERAVLLQRRK	2.77
TRLCERCQPRNLDKERAVLLQRRK	2.88
TELCERCQPRNLDKERAVLLQRRK	2.4
TGLCERCQPRNLDKERAVLLQRRK	2.78
THLCERCQPRNLDKERAVLLQRRK	2.58
SYLCERCQPRNLDKERAVLLQRRK	1.87
WYLCERCQPRNLDKERAVLLQRRK	3.05
GYLCERCQPRNLDKERAVLLQRRK	1.82
EYLCERCQPRNLDKERAVLLQRRK	1.47
QYLCERCQPRNLDKERAVLLQRRK	2.14
AYLCERCQPRNLDKERAVLLQRRK	2.29
RYLCERCQPRNLDKERAVLLQRRK	2.76
MYLCERCQPRNLDKERAVLLQRRK	1.39
KYLCERCQPRNLDKERAVLLQRRK	2.48
HYLCERCQPRNLDKERAVLLQRRK	2.18
FYLCERCQPRNLDKERAVLLQRRK	1.27
IYLCERCQPRNLDKERAVLLQRRK	1.93
VYLCERCQPRNLDKERAVLLQRRK	1.5
DYLCERCQPRNLDKERAVLLQRRK	2.73
YYLCERCQPRNLDKERAVLLQRRK	2.14
NYLCERCQPRNLDKERAVLLQRRK	2.13

Variant	protein stability index
TYLHERCQPRNLDKERAVLLQRRK	3.36
TYLWERCQPRNLDKERAVLLQRRK	2.6
TYLNERCQPRNLDKERAVLLQRRK	3.9
TYLIERCQPRNLDKERAVLLQRRK	1.54
TYLVERCQPRNLDKERAVLLQRRK	3.12
TYLDERCQPRNLDKERAVLLQRRK	4.22
TYLMERCQPRNLDKERAVLLQRRK	3.52
TYLQERCQPRNLDKERAVLLQRRK	3.56
TYLRERCQPRNLDKERAVLLQRRK	3.67
TYLAERCQPRNLDKERAVLLQRRK	4.43
TYLSERCQPRNLDKERAVLLQRRK	3.95
TYLGERCQPRNLDKERAVLLQRRK	3.83
TYLPERCQPRNLDKERAVLLQRRK	4.26
TYLKERCQPRNLDKERAVLLQRRK	3.15
TYLLERCQPRNLDKERAVLLQRRK	2.71
TYLFERCQPRNLDKERAVLLQRRK	2.61
TYLTERCQPRNLDKERAVLLQRRK	4.07
TYLEERCQPRNLDKERAVLLQRRK	4.31
TYTCERCQPRNLDKERAVLLQRRK	1.98
TYECERCQPRNLDKERAVLLQRRK	3
TYACERCQPRNLDKERAVLLQRRK	2.33
TYGCERCQPRNLDKERAVLLQRRK	2.85
TYPCERCQPRNLDKERAVLLQRRK	2.31
TYHCERCQPRNLDKERAVLLQRRK	2.44

Variant	protein stability index
TYSCERCQPRNLDKERAVLLQRRK	2.18
TYMCERCQPRNLDKERAVLLQRRK	2.02
TYCCERCQPRNLDKERAVLLQRRK	1.45
TYDCERCQPRNLDKERAVLLQRRK	2.99
TYYCERCQPRNLDKERAVLLQRRK	2.56
TYFCERCQPRNLDKERAVLLQRRK	1.82
TYNCERCQPRNLDKERAVLLQRRK	3.55
TYVCERCQPRNLDKERAVLLQRRK	2.17
TYICERCQPRNLDKERAVLLQRRK	1.55
TYRCERCQPRNLDKERAVLLQRRK	2.16
TYKCERCQPRNLDKERAVLLQRRK	2.83
TYWCERCQPRNLDKERAVLLQRRK	1.96
TYQCERCQPRNLDKERAVLLQRRK	2.42
TYLCEYCQPRNLDKERAVLLQRRK	2.83
TYLCESCQPRNLDKERAVLLQRRK	2.83
TYLCECCQPRNLDKERAVLLQRRK	2.2
TYLCEKCQPRNLDKERAVLLQRRK	1.59
TYLCEGCQPRNLDKERAVLLQRRK	4.25
TYLCEPCQPRNLDKERAVLLQRRK	3.84
TYLCEICQPRNLDKERAVLLQRRK	2.07
TYLCENCQPRNLDKERAVLLQRRK	2.81
TYLCEHCQPRNLDKERAVLLQRRK	1.87
TYLCEMCQPRNLDKERAVLLQRRK	1.81
TYLCEWCQPRNLDKERAVLLQRRK	1.53

Variant	protein stability index
TYLCEFCQPRNLDKERAVLLQRRK	1.79
TYLCEECQPRNLDKERAVLLQRRK	3.87
TYLCETCQPRNLDKERAVLLQRRK	1.92
TYLCEVCQPRNLDKERAVLLQRRK	2.42
TYLCELCQPRNLDKERAVLLQRRK	1.49
TYLCEDCQPRNLDKERAVLLQRRK	2.93
TYLCEQCQPRNLDKERAVLLQRRK	2.53
TYLCARCQPRNLDKERAVLLQRRK	1.91
TYLCIRCQPRNLDKERAVLLQRRK	2.47
TYLCHRCQPRNLDKERAVLLQRRK	2.12
TYLCCRCQPRNLDKERAVLLQRRK	1.63
TYLCGRCQPRNLDKERAVLLQRRK	2.28
TYLCDRCQPRNLDKERAVLLQRRK	2.87
TYLCQRCQPRNLDKERAVLLQRRK	1.76
TYLCVRCQPRNLDKERAVLLQRRK	3.05
TYLCFRCQPRNLDKERAVLLQRRK	1.94
TYLCKRCQPRNLDKERAVLLQRRK	1.79
TYLCNRCQPRNLDKERAVLLQRRK	1.94
TYLCTRCQPRNLDKERAVLLQRRK	1.61
TYLCWRCQPRNLDKERAVLLQRRK	2.4
TYLCLRCQPRNLDKERAVLLQRRK	1.73
TYLCSRCQPRNLDKERAVLLQRRK	2.23

— the supplement of paper PMC10567573
